# Reference: patent US10334848B2, “Methods and compositions for weed control using EPSPS polynucleotides” (Monsanto Technology LLC, priority 2014, dated 2019)
# Legend:
# [1] = test system: glyphosate-resistant Amaranthus palmeri plants (“R-22”); assay: Sensitization of glyphosate-resistant Palmer amaranth to glyphosate by topical dsRNA trigger, then WEATHERMAX glyphosate; type: in vivo; conditions: glyphosate 1.5 lb/ac one day after, four replications
# Description: Double stranded RNA (dsRNA) triggers comprising polynucleotide sequences of SEQ ID NOs: 3 and 4, SEQ ID NOs: 5 and 6, and SEQ ID NOs: 7 and 8 were produced and the triggers were formulated with 0.5% SILWET® L-77, 2% AMS, and 20 mM phosphate buffer to the desired concentration. The trigger formulations were then topically applied to the leaves of glyphosate-resistant Amaranthus palmeri plants (“R-22”). Control plants were either untreated or treated with the 0.5% SILWET® L-77, 2% AMS, and 20 mM phosphate buffer solution. One day after treatment, WEATHERMAX® brand glyphosate herbicide (RU Wmax, Monsanto, St Louis, Mo.) was applied to the plants at 1.5 lb/ac. 11 days after treatment (DAT) with EPSPS trigger polynucleotides the percent growth reduction of the dsRNA treated plants was assessed relative to untreated control plants by visual score. At 14 DAT the fresh weight of the dsRNA treated and control plants were determined. Four replications were performed per treatment. […] See also FIG. 1.
# [2] = test system: glyphosate-resistant Waterhemp plants (“WH13”); conditions: stated as known; cited from earlier work
# [3] = test system: glyphosate-resistant Waterhemp (Amaranthus rudis); assay: Sensitization of glyphosate-resistant Waterhemp to glyphosate by topical dsRNA trigger (Example 3); type: in vivo; conditions: 8 nmol trigger; glyphosate 1.5 lb/ac one day after; 14 DAT; compared to plants treated with glyphosate alone
# Description: The efficacies of mid-sized polynucleotide trigger molecules comprising SEQ ID NOs: 3 and 4 or SEQ ID NOs: 5 and 6, were assessed in glyphosate-resistant Waterhemp (Amaranthus rudis) in relation to a 24-mer trigger comprising SEQ ID NOs: 7 and 8. dsRNA triggers comprising polynucleotide sequences of SEQ ID NOs: 3 and 4, SEQ ID NOs: 5 and 6, and SEQ ID NOs: 7 and 8 were produced and the triggers were each formulated with 0.5% SILWET® L-77, 2% AMS, and 20 mM phosphate buffer to a concentration of 8 nmol. The trigger formulations were then topically applied to the leaves of glyphosate-resistant Waterhemp. Control plants were either untreated or treated with a solution of 0.5% SILWET® L-77, 2% AMS, and 20 mM phosphate buffer. One day after treatment with the trigger formulation, WEATHERMAX® brand glyphosate herbicide was applied to the plants at 1.5 lb/ac. Four replications were performed per treatment. The fresh weight of the plants was determined 14 DAT with EPSPS trigger polynucleotides and the fresh weight % compared to control plants (treated with WEATHERMAX® brand glyphosate herbicide alone) was calculated.
# [4] = test system: glyphosate-resistant Amaranthus palmeri plants (“R-22”); conditions: stated as known; cited from earlier work
# EPSPS mRNA = EPSPS mRNA reduction in Palmer protoplasts; type: cell-based; conditions: 6 ug dose of dsRNA trigger; Amaranthus palmeri protoplasts; FIG. 2
# Description: The activities of mid-sized bioactive polynucleotide trigger molecules corresponding to SEQ ID NOs: 3 and 4 or SEQ ID NOs: 5 and 6 were assessed in Amaranthus palmeri protoplasts. A 6 ug dose of each dsRNA trigger (SEQ ID NO 3/4 or SEQ ID NO 5/6) was added to Amaranthus palmeri protoplasts.
# [5] = test system: glyphosate-resistant Waterhemp plants (“WH13”); assay: Tiling of EPSPS cDNA: dsRNA trigger testing with glyphosate, fresh weight (Example 7, FIG. 4); type: in vivo; conditions: 8 nmol trigger, glyphosate 1.5 lb/ac one day after, 14 days after treatment, three replications
# Description: The EPSPS cDNA of SEQ ID NO: 1 was tiled across the entire length of the cDNA to identify target sequences for bioactive trigger polynucleotides covering as shown in Table 5. The target nucleotide sequence were chosen to be approximately 47-62 bp in length. Bioactive trigger polynucleotides comprising a nucleotide sequence having at least 85% identity or complementarity to SEQ ID NOs: 36-66 were tested for the ability to sensitize glyphosate-resistant Waterhemp to glyphosate.
# Double stranded RNA (dsRNA) triggers comprising polynucleotide sequences corresponding to SEQ ID NOs: 36-62 were produced and the bioactive trigger polynucleotides were formulated with 0.5% SILWET® L-77, 2% AMS, and 20 mM phosphate buffer to a final concentration of 8 nmol. The trigger formulations were then topically applied to the leaves of glyphosate-resistant Waterhemp plants (“WH13”). Control plants were either untreated or treated with the formulation 0.5% SILWET® L-77, 2% AMS, and 20 mM phosphate “buffer” solution. Additionally dsRNA comprising SEQ ID NOs: 7 and 8 (24-mer EPSPS trigger) was applied as a control. One day after treatment, WEATHERMAX® brand glyphosate herbicide (RU Wmax, Monsanto, St Louis, Mo.) was applied to the plants at 1.5 lb/ac.
# Three replications were performed per treatment.
# [6] = test system: glyphosate-resistant Waterhemp plants (“WH13”); assay: Sensitization of glyphosate-resistant Waterhemp WH13 to glyphosate, 2-16 nmol trigger (Example 5, FIG. 3); type: in vivo; conditions: 2, 4, 8 or 16 nmol trigger, glyphosate 1.5 lb/ac one day after, plants at 14 days after treatment
# Description: The efficacies of mid-sized bioactive polynucleotide trigger molecules
# Double stranded RNA (dsRNA) triggers comprising polynucleotide sequences of SEQ ID NOs: 3 and 4, SEQ ID NOs: 5 and 6, and SEQ ID NOs: 7 and 8 were produced and the bioactive trigger polynucleotides were formulated with 0.5% SILWET® L-77, 2% AMS, and 20 mM phosphate buffer to a concentration of 2 nmol, 4 nmol, 8 nmol or 16 nmol. The trigger formulations were then topically applied to the leaves of glyphosate-resistant Waterhemp plants (“WH13”). Control plants were either untreated or treated with the 0.5% SILWET® L-77, 2% AMS, and 20 mM phosphate buffer solution. One day after treatment, WEATHERMAX® brand glyphosate herbicide (RU Wmax, Monsanto, St Louis, Mo.) was applied to the plants at 1.5 lb/ac. Four replications were performed per treatment.
Molecule,visual 11-DAT Average (percent growth reduction relative to untreated control plants by visual score) ([1]; 2 nmole trigger) [%],Fresh weight 14-DAT Average ([1]; 2 nmole trigger),visual 11-DAT Average (percent growth reduction relative to untreated control plants by visual score) ([1]; 4 nmole trigger) [%],Fresh weight 14-DAT Average ([1]; 4 nmole trigger),visual 11-DAT Average (percent growth reduction relative to untreated control plants by visual score) ([1]; 8 nmole trigger) [%],Fresh weight 14-DAT Average ([1]; 8 nmole trigger),visual 11-DAT Average (percent growth reduction relative to untreated control plants by visual score) ([1]; 16 nmole trigger) [%],Fresh weight 14-DAT Average ([1]; 16 nmole trigger),"sensitization of glyphosate-resistant Waterhemp to glyphosate, prior knowledge (in words) [2]",% Control Fresh wt. average [3] [%],"sensitization of glyphosate-resistant Palmer amaranth to glyphosate, prior knowledge (in words) [4]",EPSPS mRNA reduction vs. control (EPSPS mRNA) [%],"efficacy in sensitizing glyphosate-resistant Waterhemp to glyphosate (in words, from fresh weight) [5]",sensitization of glyphosate-resistant Waterhemp plants to glyphosate (in words) [6]
"SEQ ID NO 7/8: dsRNA 24mer EPSPS Trigger (SEQ ID NO 7) and Reverse Complement (SEQ ID NO 8), known to sensitize glyphosate-resistant weeds; control (sense AUGCCAGAUGUUGCUAUGACUCUU; antisense AAGAGUCAUAGCAACAUCUGGCAU; listed as RNA, chemistry not given here) [reference compound]",47.5,19.0,88.8,95.3,90.0,91.8,85.8,93.7,known to sensitize glyphosate-resistant Waterhemp to glyphosate,85,known to sensitize glyphosate-resistant Palmer amaranth to glyphosate,–,–,–
"SEQ ID NO 3/4: dsRNA trigger: 50mer EPSPS Trigger (SEQ ID NO 3) and Reverse Complement (SEQ ID NO 4), positions 398-447 of Amaranthus palmeri EPSPS cDNA (nucleic acid, double-stranded RNA trigger, further chemistry not given here) sense: GAACUCUUGGUUUAAAAGUGGAGGAUGAUAGUACAGCCAAAAGGGCAGUC antisense: GACUGCCCUUUUGGCUGUACUAUCAUCCUCCACUUUUAAACCAAGAGUUC",46.3,24.0,28.8,94.7,88.3,88.4,90.0,97.0,–,78,–,69,good efficacy,sensitize glyphosate-resistant Waterhemp plants to glyphosate
"SEQ ID NO 5/6: dsRNA trigger: 53mer EPSPS Trigger (SEQ ID NO 5) and Reverse Complement (SEQ ID NO 6), positions 1189-1241 of Amaranthus palmeri EPSPS cDNA (nucleic acid, double-stranded RNA trigger, further chemistry not given here) sense: GACGUCAACAUGAACAAAAUGCCAGAUGUUGCUAUGACUCUUGCAGUUGUUGC antisense: GCAACAACUGCAAGAGUCAUAGCAACAUCUGGCAUUUUGUUCAUGUUGACGUC",48.8,18.2,41.3,94.0,93.8,96.2,81.3,90.7,–,83,–,84,good efficacy,sensitize glyphosate-resistant Waterhemp plants to glyphosate
